Measured values reported in paper PMC2844433, “Polo-Like Kinase 2-Dependent Phosphorylation of NPM/B23 on Serine 4 Triggers Centriole Duplication” (PLoS ONE, 2010).

Target: T1, Recombinant His-tagged NPM/B23 (UniProt P06748 1-294)
T1 construct: NPM/B23 (Nucleophosmin), bacterially produced, unphosphorylated; also called His-NPM/B23; His-tagged NPM/B23 WT; source: E. coli BL21, purified (Ni-NTA agarose)
Test: pull-down; in vitro binding assay: Flag-Plk2 fragments immunoprecipitated from 293T cells, bound to Protein G sepharose, incubated with 15 µg recombinant His-NPM/B23 in PBS with 0.05% NP-40 for 2 h at 4°C; Western blot
Settings: both partners purified

T1 sequence (P06748 whole entry): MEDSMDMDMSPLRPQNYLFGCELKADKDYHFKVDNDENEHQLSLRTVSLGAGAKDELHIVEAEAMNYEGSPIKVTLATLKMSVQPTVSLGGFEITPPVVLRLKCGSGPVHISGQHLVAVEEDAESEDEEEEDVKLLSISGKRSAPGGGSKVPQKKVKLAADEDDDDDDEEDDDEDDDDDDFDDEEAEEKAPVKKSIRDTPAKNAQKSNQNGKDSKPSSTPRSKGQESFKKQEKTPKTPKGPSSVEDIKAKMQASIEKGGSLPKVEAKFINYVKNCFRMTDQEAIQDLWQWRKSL

B1: Flag-Plk2-(aa 590–685) (domain or fragment, UniProt Q9NYY3 590-685, looked up)
chain: PSVTDIRRPRLYLLQWLKSDKALMMLFNDGTFQVNFYHDHTKIIICSQNEEYLLTYINEDRISTTFRLTTLLMSGCSSELKNRMEYALNMLLQRCN
notes: also called second Polo-box of Plk2; source: 293T, transfected, immunoprecipitated with anti-Flag antibodies
binding result: binds
